{
  "source": "paper PMC4452343",
  "about": "“Monitoring β-arrestin recruitment via β-lactamase enzyme fragment complementation: purification of peptide E as a low-affinity ligand for mammalian bombesin receptors” (PLoS ONE, 2015)",
  "key": {"[1]": {"target": "human bombesin receptor subtype 3 (human) (UniProt P32247)", "sequence (P32247 whole entry)": "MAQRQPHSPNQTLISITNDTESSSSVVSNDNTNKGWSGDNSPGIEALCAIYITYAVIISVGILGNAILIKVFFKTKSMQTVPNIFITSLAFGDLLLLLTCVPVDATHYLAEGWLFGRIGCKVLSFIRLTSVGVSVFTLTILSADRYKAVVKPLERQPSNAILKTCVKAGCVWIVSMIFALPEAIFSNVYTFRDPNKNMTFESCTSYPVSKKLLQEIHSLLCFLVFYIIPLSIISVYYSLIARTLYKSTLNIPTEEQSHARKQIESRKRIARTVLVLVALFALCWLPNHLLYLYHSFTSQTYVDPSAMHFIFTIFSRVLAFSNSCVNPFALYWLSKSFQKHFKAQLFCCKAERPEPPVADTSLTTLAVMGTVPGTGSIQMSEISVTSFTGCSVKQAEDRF"}, "[2]": {"target": "neuromedin B receptor (human) (UniProt P28336)", "sequence (P28336 whole entry)": "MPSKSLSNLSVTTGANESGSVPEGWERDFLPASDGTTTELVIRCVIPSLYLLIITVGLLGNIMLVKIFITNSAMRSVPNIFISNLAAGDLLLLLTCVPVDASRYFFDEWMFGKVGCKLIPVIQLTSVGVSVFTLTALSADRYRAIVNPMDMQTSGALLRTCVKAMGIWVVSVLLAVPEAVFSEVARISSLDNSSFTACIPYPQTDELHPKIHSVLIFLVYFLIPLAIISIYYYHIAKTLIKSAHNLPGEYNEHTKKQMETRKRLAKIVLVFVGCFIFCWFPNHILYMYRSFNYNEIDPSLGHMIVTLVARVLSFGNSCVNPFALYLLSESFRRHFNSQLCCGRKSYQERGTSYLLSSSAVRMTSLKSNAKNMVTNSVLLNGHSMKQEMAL"}},
  "data": [
    {"substance": "[D-Phe^6, ß-Ala^11, Phe^13, Nle^14]-Bombesin (6–14) (peptide)", "values": [
      {"measurement": "EC50 of NFAT-luciferase reporter activation in CHO cells expressing hBRS3", "setting": "[1]", "value": 8.8, "unit": "nM"}
    ]},
    {"substance": "neuromedin B (peptide)", "values": [
      {"measurement": "EC50 of NFAT-luciferase reporter activation in CHO cells expressing hNMBR", "setting": "[2]", "value": 0.16, "unit": "nM"}
    ]}
  ]
}
